Tests used:
c-Src SH2 = experiment: SH2 binding enrichment of the phosphorylated peptide, bacterial display (enrichment ratio); higher = better substrate or ligand; peptides without Tyr show the background
Grb2 SH2 = Grb2 SH2 (UniProt P62993); experiment: as above
SHP2-C SH2 = experiment: as above
EPHB2 = EPHB2 (UniProt P29323); experiment: phosphorylation enrichment, bacterial display (enrichment ratio); higher = better substrate or ligand; peptides without Tyr show the background
AncSZ = experiment: as above
FGFR1 = FGFR1 (UniProt P11362); experiment: as above
Jak2 = Jak2 (UniProt O60674); experiment: as above
MERTK = MERTK (UniProt Q12866); experiment: as above
c-Abl (mouse) = experiment: as above
c-Src = experiment: as above
EPHB1 = EPHB1 (UniProt P54762); experiment: as above
Fer (mouse) = experiment: as above
FGFR3 = FGFR3 (UniProt P22607); experiment: as above
Fyn = Fyn (UniProt P06241); experiment: as above
Fes = Fes (UniProt P07332); experiment: as above
Hck = Hck (UniProt P08631); experiment: as above
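Wherever SH2 binding enrichment of the phosphorylated peptide, bacterial display is given: peptide library displayed on the E. coli surface as eCPX fusions, selected cells deep-sequenced, score is each peptide's frequency after selection divided by its frequency in the input.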
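Wherever phosphorylation enrichment, bacterial display is given: 11-residue human phosphosite peptides and single-mutation variants displayed on the E. coli surface, counted by deep sequencing, each peptide's frequency after selection divided by its frequency in the unselected input library; frequency after pTyr selection over input frequency; kinase dosed for 20-30% of maximal phosphorylation in three min.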

Sequence of Grb2 SH2 (P62993 whole entry, looked up): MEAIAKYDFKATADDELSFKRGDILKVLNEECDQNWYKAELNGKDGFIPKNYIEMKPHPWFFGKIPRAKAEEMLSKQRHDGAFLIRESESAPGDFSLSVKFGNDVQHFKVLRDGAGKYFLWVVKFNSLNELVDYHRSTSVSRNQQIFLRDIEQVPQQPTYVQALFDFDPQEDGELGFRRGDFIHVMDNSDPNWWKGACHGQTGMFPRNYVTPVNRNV
Sequence of EPHB1 (P54762 whole entry, looked up): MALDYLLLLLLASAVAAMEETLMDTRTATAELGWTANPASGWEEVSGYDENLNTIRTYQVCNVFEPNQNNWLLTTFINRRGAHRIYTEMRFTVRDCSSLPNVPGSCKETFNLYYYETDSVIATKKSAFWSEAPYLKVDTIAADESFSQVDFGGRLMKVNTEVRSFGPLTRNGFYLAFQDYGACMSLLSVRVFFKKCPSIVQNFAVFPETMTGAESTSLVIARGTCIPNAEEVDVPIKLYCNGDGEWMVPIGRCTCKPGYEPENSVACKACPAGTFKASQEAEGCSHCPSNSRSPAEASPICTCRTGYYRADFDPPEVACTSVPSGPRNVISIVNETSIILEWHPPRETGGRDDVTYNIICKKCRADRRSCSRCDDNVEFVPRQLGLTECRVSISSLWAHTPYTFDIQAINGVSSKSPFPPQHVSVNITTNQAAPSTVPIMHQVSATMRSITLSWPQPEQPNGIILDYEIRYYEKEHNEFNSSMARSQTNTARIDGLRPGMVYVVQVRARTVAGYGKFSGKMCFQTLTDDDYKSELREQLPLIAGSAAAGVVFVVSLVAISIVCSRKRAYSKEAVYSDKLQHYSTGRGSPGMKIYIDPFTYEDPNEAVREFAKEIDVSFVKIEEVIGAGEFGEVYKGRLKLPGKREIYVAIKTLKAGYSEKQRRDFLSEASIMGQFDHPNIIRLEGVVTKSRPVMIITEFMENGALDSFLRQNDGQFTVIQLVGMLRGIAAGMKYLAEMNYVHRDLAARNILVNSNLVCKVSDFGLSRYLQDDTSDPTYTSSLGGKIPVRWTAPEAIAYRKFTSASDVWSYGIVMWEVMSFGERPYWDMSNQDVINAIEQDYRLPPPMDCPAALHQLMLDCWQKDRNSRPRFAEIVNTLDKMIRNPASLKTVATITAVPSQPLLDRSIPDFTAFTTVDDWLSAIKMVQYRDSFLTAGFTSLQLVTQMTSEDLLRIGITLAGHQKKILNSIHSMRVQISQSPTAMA
Sequence of Fes (P07332 whole entry, looked up): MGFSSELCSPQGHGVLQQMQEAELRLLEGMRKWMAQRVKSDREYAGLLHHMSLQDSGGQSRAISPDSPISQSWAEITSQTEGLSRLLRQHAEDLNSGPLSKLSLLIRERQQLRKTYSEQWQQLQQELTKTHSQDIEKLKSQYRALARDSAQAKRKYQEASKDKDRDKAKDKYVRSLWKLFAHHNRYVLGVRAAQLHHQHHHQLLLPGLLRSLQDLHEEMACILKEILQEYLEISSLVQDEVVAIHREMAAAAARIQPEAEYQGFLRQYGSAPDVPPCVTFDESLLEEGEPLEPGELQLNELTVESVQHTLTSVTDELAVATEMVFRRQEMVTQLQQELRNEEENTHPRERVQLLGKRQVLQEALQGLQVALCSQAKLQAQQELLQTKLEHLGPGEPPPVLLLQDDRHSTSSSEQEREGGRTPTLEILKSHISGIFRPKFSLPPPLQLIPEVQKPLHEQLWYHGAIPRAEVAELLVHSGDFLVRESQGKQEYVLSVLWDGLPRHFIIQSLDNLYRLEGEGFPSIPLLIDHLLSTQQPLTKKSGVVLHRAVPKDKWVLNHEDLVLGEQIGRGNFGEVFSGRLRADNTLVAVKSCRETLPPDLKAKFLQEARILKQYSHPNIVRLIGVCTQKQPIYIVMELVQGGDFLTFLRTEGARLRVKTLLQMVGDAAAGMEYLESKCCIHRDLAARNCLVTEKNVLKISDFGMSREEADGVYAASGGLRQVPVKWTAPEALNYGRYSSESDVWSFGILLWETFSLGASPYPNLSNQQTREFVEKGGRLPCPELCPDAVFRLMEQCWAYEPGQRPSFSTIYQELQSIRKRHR
Sequence of Jak2 (O60674 whole entry, looked up): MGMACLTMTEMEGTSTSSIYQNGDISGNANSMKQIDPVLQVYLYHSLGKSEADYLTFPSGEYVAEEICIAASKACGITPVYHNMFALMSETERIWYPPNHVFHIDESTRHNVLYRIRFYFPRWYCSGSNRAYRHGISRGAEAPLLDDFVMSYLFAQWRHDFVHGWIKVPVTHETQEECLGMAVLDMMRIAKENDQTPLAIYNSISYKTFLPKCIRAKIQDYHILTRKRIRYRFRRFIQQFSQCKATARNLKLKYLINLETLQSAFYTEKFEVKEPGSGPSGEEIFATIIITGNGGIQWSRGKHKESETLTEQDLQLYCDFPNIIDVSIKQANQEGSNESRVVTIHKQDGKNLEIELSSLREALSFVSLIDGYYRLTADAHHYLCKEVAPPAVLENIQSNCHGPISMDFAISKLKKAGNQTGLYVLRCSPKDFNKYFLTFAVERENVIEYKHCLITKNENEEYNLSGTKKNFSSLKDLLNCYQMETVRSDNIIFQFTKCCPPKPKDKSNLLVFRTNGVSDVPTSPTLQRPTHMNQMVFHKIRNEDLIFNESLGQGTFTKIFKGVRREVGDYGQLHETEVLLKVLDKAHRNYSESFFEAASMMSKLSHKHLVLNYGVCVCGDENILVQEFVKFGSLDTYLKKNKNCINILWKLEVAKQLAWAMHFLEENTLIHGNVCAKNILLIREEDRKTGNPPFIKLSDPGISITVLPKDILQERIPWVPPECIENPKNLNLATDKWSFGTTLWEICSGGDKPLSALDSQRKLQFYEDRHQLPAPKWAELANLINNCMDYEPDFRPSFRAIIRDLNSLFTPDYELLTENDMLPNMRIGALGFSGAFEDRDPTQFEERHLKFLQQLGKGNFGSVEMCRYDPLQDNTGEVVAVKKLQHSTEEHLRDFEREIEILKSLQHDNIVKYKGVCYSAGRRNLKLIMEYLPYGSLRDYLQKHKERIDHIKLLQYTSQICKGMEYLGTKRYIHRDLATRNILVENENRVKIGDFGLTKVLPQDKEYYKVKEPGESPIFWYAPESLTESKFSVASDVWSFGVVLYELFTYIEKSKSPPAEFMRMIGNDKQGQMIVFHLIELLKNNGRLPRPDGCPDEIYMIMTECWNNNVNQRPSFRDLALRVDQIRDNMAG
Sequence of MERTK (Q12866 whole entry, looked up): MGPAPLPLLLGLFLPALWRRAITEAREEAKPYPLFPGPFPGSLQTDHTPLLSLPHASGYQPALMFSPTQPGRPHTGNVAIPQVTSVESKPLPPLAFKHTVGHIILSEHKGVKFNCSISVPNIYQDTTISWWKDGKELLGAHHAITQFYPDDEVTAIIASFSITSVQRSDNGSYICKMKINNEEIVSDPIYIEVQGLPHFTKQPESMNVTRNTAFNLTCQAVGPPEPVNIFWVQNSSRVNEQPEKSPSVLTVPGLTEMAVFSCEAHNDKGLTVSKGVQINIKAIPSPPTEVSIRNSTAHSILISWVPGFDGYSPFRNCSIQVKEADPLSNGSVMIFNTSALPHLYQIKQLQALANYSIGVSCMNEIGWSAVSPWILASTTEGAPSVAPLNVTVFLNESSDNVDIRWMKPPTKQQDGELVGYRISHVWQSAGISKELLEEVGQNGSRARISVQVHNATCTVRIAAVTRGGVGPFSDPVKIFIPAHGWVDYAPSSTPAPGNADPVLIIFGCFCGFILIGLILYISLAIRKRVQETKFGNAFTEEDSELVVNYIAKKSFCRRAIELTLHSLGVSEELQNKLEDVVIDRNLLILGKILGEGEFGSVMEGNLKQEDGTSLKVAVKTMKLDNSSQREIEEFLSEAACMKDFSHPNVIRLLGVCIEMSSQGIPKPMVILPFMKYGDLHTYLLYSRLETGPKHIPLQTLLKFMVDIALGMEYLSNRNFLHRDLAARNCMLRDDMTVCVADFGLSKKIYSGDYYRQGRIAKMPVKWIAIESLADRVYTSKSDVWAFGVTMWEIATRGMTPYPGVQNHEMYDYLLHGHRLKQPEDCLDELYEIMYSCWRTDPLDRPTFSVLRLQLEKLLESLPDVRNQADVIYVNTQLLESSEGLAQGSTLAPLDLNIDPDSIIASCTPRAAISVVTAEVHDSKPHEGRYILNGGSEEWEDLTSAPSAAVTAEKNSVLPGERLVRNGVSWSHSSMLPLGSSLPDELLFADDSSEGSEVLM
Sequence of Hck (P08631 whole entry, looked up, the tested form may be a part): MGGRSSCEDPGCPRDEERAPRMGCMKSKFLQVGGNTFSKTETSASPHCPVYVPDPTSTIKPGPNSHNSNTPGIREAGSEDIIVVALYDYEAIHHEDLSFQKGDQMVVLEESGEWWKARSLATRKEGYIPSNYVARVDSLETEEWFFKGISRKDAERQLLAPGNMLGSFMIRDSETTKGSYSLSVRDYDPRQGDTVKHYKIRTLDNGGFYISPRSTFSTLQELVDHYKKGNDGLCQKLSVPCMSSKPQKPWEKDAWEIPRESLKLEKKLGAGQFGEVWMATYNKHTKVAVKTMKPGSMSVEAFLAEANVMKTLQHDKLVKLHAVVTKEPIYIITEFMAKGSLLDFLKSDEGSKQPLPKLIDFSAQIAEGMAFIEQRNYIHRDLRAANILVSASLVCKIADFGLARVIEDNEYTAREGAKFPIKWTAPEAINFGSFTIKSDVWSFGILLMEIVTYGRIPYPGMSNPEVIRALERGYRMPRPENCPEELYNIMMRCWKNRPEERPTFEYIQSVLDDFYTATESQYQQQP

Sequence	SH2 binding enrichment (c-Src SH2)	SH2 binding enrichment (Grb2 SH2)	SH2 binding enrichment (SHP2-C SH2)	phosphorylation enrichment (EPHB2)	phosphorylation enrichment (AncSZ)	phosphorylation enrichment (FGFR1)	phosphorylation enrichment (Jak2)	phosphorylation enrichment (MERTK)	phosphorylation enrichment (c-Abl (mouse))	phosphorylation enrichment (c-Src)	phosphorylation enrichment (EPHB1)	phosphorylation enrichment (Fer (mouse))	phosphorylation enrichment (FGFR3)	phosphorylation enrichment (Fyn)	phosphorylation enrichment (Fes)	phosphorylation enrichment (Hck)
LSIDRYHAIVF [NPSR1_Y147_YF]	1.44	0.934	0.691	1.04	1.56	1.22	2.75	1.81	0.941	0.976	0.753	0.444	1.44	0.833	1.3	0.861
SWVVPYEPPEV [TP53_Y220_V216W]	1.33	1.05	0.639	0.631	1.44	0.599	0.957	0.39	0.851	0.411	0.553	0.577	0.861	0.463	1.23	0.542
GMEIVYVYVKK [DNAI2_Y5]	0.474	0.688	0.722	0.665	1.24	0.967	0.964	0.416	0.813	0.632	0.731	0.545	1.1	0.545	1.23	0.899
RRIHSYRGHLC [VHL_Y112_W117C]	0.534	0.95	0.478	0.619	0.774	0.503	0.821	0.828	0.534	0.566	0.656	0.382	0.733	0.531	1.3	0.63
QTPVLYAMLDH [MPZ_Y220]	0.922	0.837	2.71	8.88	0.853	3.44	0.845	10.7	2.67	4.54	10.7	9.39	2.84	5.21	1.02	7.14
VKKKLDEEIDQ [CYP17A1_Y329_Y329D]	0.705	1.03	0.853	0.555	0.839	0.578	0.782	0.523	0.693	0.441	0.505	0.422	0.579	0.483	0.792	0.488
KPEKTYGLRKE [CEP43_Y267]	0.823	1.1	0.999	0.409	0.595	0.344	0.683	0.441	0.782	0.43	0.433	0.395	0.614	0.46	0.766	0.503
YGAHNHHPLPV [OAT_Y55_Y55H]	0.919	0.963	1.05	0.38	0.538	0.408	0.62	0.516	0.671	0.506	0.413	0.693	0.473	0.415	0.696	0.458
GKLIFYDLRGE [KARS1_Y145]	0.688	0.947	0.956	0.637	1.02	0.517	0.823	0.436	0.664	0.413	0.492	0.432	0.584	0.474	0.984	0.531
RMDGKYACSFT [FLNB_Y704_T703K_YF]	0.566	0.935	0.638	0.977	1.38	1.1	0.929	0.589	0.902	0.491	0.882	0.701	1.45	0.756	1.28	0.964
CTTFHYNFMCN [TP53_Y234_I232F_YF]	2.14	1.64	1.47	0.57	0.923	0.579	0.866	0.4	0.641	0.595	0.468	0.581	0.672	0.501	1.1	0.479
WKEIEYEVVPD [CPS1_Y634_R638P]	0.48	0.837	0.861	0.961	1.43	0.7	1.18	0.494	0.639	0.479	0.636	0.554	0.774	0.483	1.18	0.559
QLQTTYPSSDN [MAX_Y115_N114T]	0.448	0.921	0.73	0.48	0.773	0.433	0.853	0.357	0.566	0.556	0.445	0.789	0.626	0.35	0.752	0.474
TVQVAYFTMMM [SPATA17_Y83_YF]	0.453	0.745	0.704	0.667	1.04	1.04	1.15	0.441	0.791	0.599	0.662	0.678	1.17	0.5	1.41	0.59
AHEALYLEADL [CENPF_Y1920_E1915A]	0.399	0.577	0.386	0.802	1.82	2.2	1.05	1.03	1.09	0.855	0.781	1.12	2.09	0.692	1.29	0.736
AAGGRYYGLVG [HARS1_Y363_D364Y]	1.79	0.938	0.595	0.441	0.56	0.432	0.49	3.95	0.671	0.867	0.347	0.45	0.451	0.618	0.601	0.715
